Numbering of substitutions follows the chain as printed. “Also recorded” adds a separate entry of the source. Read-outs that look alike come from different tables or passages of the source.
B1: rHev b 6: recombinant Hev b 6 (prohevein) expressed in E. coli from pPROEX-HTa with 6-His tag (protein)
chain: EQCGRQAGGKLCPNNLCCSQWGWCGSTDEYCSPDHNCQSNCKDSGEGVGGGSASNVLATYHLYNSQDHGWDLNAASAYCSTWDANKPYSWRSKYGWTAFCGPVGAHGQSSCGKCLSVTNTGTGAKTTVRIVDQCSNGGLDLDVNVFRQLDTDGKGYERGHITVNYQFVDCGDSFNPLFSVMKSSVIN
modifications: left off: small tags and cut ends
notes: recombinant Hev b 6 (prohevein) expressed in E. coli from pPROEX-HTa with 6-His tag
B2: mutant rHev b 6: rHev b 6 with cysteine to alanine substitution at amino acid 3 of the mature protein (protein)
chain: B1 chain with C3A
modifications: left off: small tags and cut ends
notes: rHev b 6 with cysteine to alanine substitution at amino acid 3 of the mature protein
B3: sulphonated rHev b 6: purified rHev b 6 sulphonated in sulphonation buffer to improve solubility (protein)
chain: B1 chain
modifications: left off: small tags and cut ends

How the values were obtained:
Hev b 6 specific IgE = assay: ELISA for Hev b 6 specific human IgE (Examples 8 and 9); format: binding; details: for frequency of IgE reactivity in non-latex allergic subjects: 18 non-latex allergic subjects, compared with 6%; for latex allergic subjects positive for IgE binding by ELISA (positive/total) / latex allergic subjects positive for IgE binding by ELISA: 31 latex allergic subjects; for latex allergic subjects positive for IgE binding by ELISA: cut-off mean + 2 SD of non-latex allergic; for IgE binding by ELISA: sera of latex allergic, Hev b 6 sensitised subjects
Protocol: (§1) FIG. 6 is an image of sulphonation abolishing the IgE reactivity of rHev b 6. rHev b 6 (A) and sulphonated rHev b 6 (B) were resolved by 16% SDS-PAGE under non-reducing conditions. Gels were either stained with Coomassie Brilliant Blue (1) or transferred to nitrocellulose. Strips with transferred protein were incubated with the Hev b 6-specific mAb 1A5.4 and binding detected (2). Strips with transferred protein were also incubated with sera from two latex allergic, Hev b 6 sensitized subjects (3 and 4) and one non-latex-allergic, atopic subject (5). The presence or absence of IgE binding was then detected. […] Plates were coated with rHev b 6 and sulphonated rHev b 6 and the presence or absence of IgE-binding detected. As a positive control the Hev b 6-specific mAb 1A5 was used. NB indicates no binding of IgE was detected.
(§2) FIG. 7 is a graphical representation of the disruption of the first disulphide bond of Hev b 6 markedly decreasing IgE binding to rHev b6. IgE from the sera of 31 latex allergic and 18 non-latex allergic subjects assayed by ELISA for the ability to bind rHev b 6 (no substitution) and mutant rHev b 6 (cysteine to alanine substitution at amino acid 3). Plates were coated with both rHev b 6 and mutant rHev b 6 and incubated with subjects' sera (A) Population ELISA. Individual dots represent individual readings. The thin horizontal lines indicated the cut-off for positive for IgE binding to mutant rHev b 6 and rHev b 6, calculated as the mean of the readings for non-latex allergic subjects for each antigen plus 2 SD. The thick horizontal lines indicate the mean of each group. (B) Direct comparison of IgE and mAb binding to rHev b 6 and mutant rHev b 6. A1 to 11, latex-allergic subjects. N1, non-latex allergic subject. Dotted line indicates the cut-off for positive for IgE binding for mutant rHev b 6. The solid line indicates the cut-off for positive for IgE binding for rHev b 6.
(§3) Patient serum samples were tested for Hev b 6 specific IgE using our standard ELISA protocol (Sutherland et al. 2002, supra) with rabbit anti-human IgE (Dako, Denmark) at 1 in 1000 dilution followed by swine anti-rabbit IgG-HRP conjugate (Promega) at I in 1000 dilution. For the Hev b 6-specific mAb 1A5.4 (IgG1/kappa isotype) binding was detected using sheep anti-mouse Ig-HRP (Silenus) at 1 in 1000 dilution.

basophils = assay: Basophil Activation Test; format: cell-based, human; details: for activated basophils / basophil activation above background / basophils activated (above background): 10 μg/ml; for basophil activation above background levels / basophil activation over background: latex allergic subjects; for basophil activation above background levels: 0.1 μg/ml (FIGS. 9B and C); for basophil activation over background: 1 μg/ml; for basophil activation: non-latex allergic control subject N2; for basophil activation above background: one subject (FIG. 9B); for basophils activated (above background): latex allergic subjects (FIGS. 9B, C and D)
Protocol: FIG. 9 is a graphical representation of the basophil Activation Test on a latex allergic donor. Whole blood from a latex allergic, Hev b 6 sensitized subject was incubated with latex allergens. The cells were stained with FITC labelled anti-human IgE polyclonal antibodies and a PE labelled monoclonal anti-human CD63 antibody. Cells were analysed by flow cytometry defining basophils on the basis of scatter (A) and high IgE staining (B). The percentage of activated basophils expressing CD63 was determined (C).
The Basophil Activation Test was performed on whole blood from (A) non-latex allergic subject N2; (B) latex-allergic subject A7; (C) latex-allergic subject A8 and (D) latex-allergic subject A10. Antigens: latex glove extract (GE), hevein peptide (hevein), rHev b 6, mutant rHev b 6 (MU rHev b 6), sulphonated rHev b 6, (sul. rHev b 6), rHev b 5, KLH and house dust mite extract (HDM). All allergens were used at 10 μg/ml except for rHev b 6 and mutant rHev b 6 which were used at 0.1, 1 and 10 μg/ml. The cut-off for positive was set at the level of activated basophils after incubation in stimulation buffer alone (no antigen, horizontal line). A plus symbol (+) indicates antigen to which a subject has either a positive clinical history of allergy and/or a positive reading on an allergen-specific IgE ELISA.
A basophil activation assay based on flow cytometry was used to quantify the activation of basophils after incubation with various allergens. This assay was modified from Paris-Kohler A, Demoly P, Persi L, Lebel B, Bousquet J, Arnoux B. In vitro diagnosis of cypress pollen allergy by using cytofluorimetric analysis of basophils (Basotest). J Allergy Clin Immunol 2000; 105:339-45. Whole blood was collected in 6 ml heparinised vacutainers (Greiner). 100 μl aliquots were preincubated with stimulation buffer (20 mM Hepes, 133 mM NaCl, 5 mM KCl, 7 mM CaCl2, 3.5 mM MgCl2, 1 mg/ml BSA, 20 μl/ml heparin, pH 7.4) containing 2 ng/ml IL-3, for 10 min at 37° C., to increase the sensitivity of the assay. Samples were incubated for 20 min at 37° C. with 100 μl of stimulation buffer alone or stimulation buffer containing either rabbit anti-human IgE (Dako) at 1 in 500 dilution, 2 μM N-fMLP (Sigma, Mo, USA), crude allergen extracts, recombinant latex allergens or Keyhole Limpet Haemocyanin (KLH) (Sigma, Mo, USA). Basophil activation was stopped by incubating at 4° C. for 5 min. Normal goat serum (10 μl) was added to each tube to block non-specific binding of the detection antibody (goat anti-human IgE-FITC) and incubated for 10 min at 4° C. Samples were incubated with goat anti-human IgE-FITC (Caltag, Birmingham, Calif.) at a dilution of 1 in 2.5, and mouse anti-human CD63-R-Phycoerythrin (PE; Caltag, Birmingham, Calif.) at a dilution of 1 in 20, in a 20 μl volume of wash buffer (20 mM HEPES, 133 mM NaCl, 5 mM KCl, 0.27 mM EDTA, pH7.3). RBC were lysed by the addition of 2 ml FACS lysing solution (39 mM NH4Cl, 2.5 mM KHCO3, 0.2 mM EDTA) and incubation for 10 min at room temperature. Cells were centrifuged (250 g, 5 min at 4° C.), resuspended in 3 ml wash buffer, and centrifuged as before. Pellets were resuspended in 200 μl wash buffer, and analysed by flow cytometry (FACScalibur, Becton Dickinson) within 2 h of the experiment. 7AAD (Sigma, Mo, USA) was added to the samples 5 min prior to FACS analysis.

[1] = test system: Hev b 6-specific mAb 1A5.4; assay: ELISA for Hev b 6-specific mAb binding to rHev b 6 forms; parameters: species or system mouse
Protocol: as §1, §2, §3

| Molecule | frequency of IgE reactivity in non-latex allergic subjects (Hev b 6 specific IgE) | latex allergic subjects positive for IgE binding by ELISA (positive/total) (Hev b 6 specific IgE) | latex allergic subjects positive for IgE binding by ELISA (Hev b 6 specific IgE) | IgE binding by ELISA (Hev b 6 specific IgE) | activated basophils (basophils; another patient (FIG. 9C)) | basophil activation above background levels (basophils) | basophil activation over background (basophils) | basophil activation (basophils) | basophil activation above background (basophils) | activated basophils (basophils; third patient) | Hev b 6-specific mAb binding by ELISA [1] | Hev b 6-specific mAb binding by ELISA ([1]; listed as rHevb 6) | basophils activated (above background) (basophils) |
| --- | --- | --- | --- | --- | --- | --- | --- | --- | --- | --- | --- | --- | --- |
| B1 | same frequency | 21/31 | 68% | bound | 60% | 30-50% | 50-60% | negligible | 60% | 70% | bound to a similar extent | comparable reactivity |  |
| B2 | same frequency | 2/31 | 6% |  | 40% | no activation above background levels | 5-10% | negligible | 15% | no activation | comparable reactivity |  | up to 49% |
| B3 |  |  |  | no detectable binding; also recorded: lack of reactivity |  |  |  |  |  |  | bound to a similar extent |  | less than 5% |

Reference: patent publication US20060233785A1, “Immunointeractive molecules and uses thereof” (priority 2001, published 2006)
